Biological target: T1, synthetic peptide HRCLQQLCCRKKPG
T1 construct: Variant of P2X7 residues 491-504, used as the counter-screen peptide; also called the wild type SNP at position 496 which is Q
T1 peptide: HRCLQQLCCRKKPG
Test: in-vitro cross-reaction of hybridoma monoclonal antibodies against the synthetic peptide
Source text: For the generation of monoclonal antibodies, hybridoma cell lines expressing the desired antibody were produced. Techniques for the production of monoclonal antibodies are well known in the art. Animals were presented with the carboxyl-terminal antigen sequence […] conjugated to KHL. Murine hybridoma cells were produced and screened according to standard protocols. Monoclonal antibodies harvested after clonal selection of the hybridomas expressed from the variable regions of the monoclonal antibodies raised against the antigen, were tested for their capacity to bind this antigen.

B1: Clone 3: 6H5.C10 Isotype Ig1 k (antibody, V domains shown)
VH: QVTLKESGPGILQPSQTLSLTCSFSGFSLSTFGMGVGWIRQPSGKGLEWLAHIWWDDYKYYNPALKSRLTISKDTSKNQVFLKIANVDTADTATYYCARISYYGSSYLDYWGQGTTLTVSS
VL: DVVMTQTPLSLPVSLGDQASISCRSSQSLVHSNGNTYLHWYLQKPGQSPKLLIYKVSNRFSGVPDRFSGSGSGTDFTLKISRVEAEDLGVYFCSQTTHVPYTFGGGTKLEIKR
notes: Murine hybridoma monoclonal antibody, isotype printed as 'Ig1 k'
B1: no binding.

— patent US20250353901A1 (ON TARGET MOLECULES BIOTECH, published 2025)
